PMC553973

Target: fibronectin 70 kDa N-terminal fragment
Experiment: SPR; BIAcore X; FN 70 kDa fragment immobilised on a CM5 chip; HGF (30–500 nM) injected in HEPES saline pH 7.4 with 1 mM MgCl2, 2 mM CaCl2; equilibrium and Scatchard analysis; apparent Kd; n = 3

hepatocyte growth factor (from UniProt P14210 32-728) (ligand)
Kd: 300 nM | Kd of the high affinity site (two-site model): 15 nM | Kd of the low affinity site (two-site model): 4000 nM
